In publication PMC7617797, “The phosphorylated trimeric SOSS1 complex and RNA polymerase II trigger liquid-liquid phase separation at double-strand breaks”:

B1: 61-mer ssDNA (ssDNA)
DNA: GACGCTGCCGAATTCTACCAGTGCCTTGCTAGGACATCTTTGCCCACCTGCAGGTTCACCC
B2: bubble DNA (dsDNA)
DNA 1: B1 DNA
DNA 2: GGGTGAACCTGCAGGTGGGCGGCTGCTCATCGTAGGTTAGTTGGTAGAATTCGGCAGCGTC
B3: R-loop (mixed)
DNA 1: B1 DNA
DNA 2: B2 DNA 2
RNA: AAAGAUGUCCUAGCAAGGCAC

Experiments:
Assay in all cases: EMSA; EMSA: 25 mM Tris-HCl pH 7.5, 1 mM DTT, 5 mM MgCl2, 100 mM NaCl, 20 min at 37 C; 10 nM substrate; protein 22-167 nM (RPA 5-40 nM); 7.5% native PAGE, 0.5x TBE, 4
RPA = RPA (UniProt P27694;P15927;P35244 1-616;1-270;1-121); conditions: protein: recombinant; copies: 1;1;1; label: 5' Cy3; single strand
RPA, sequence (P27694 whole entry, chain 1 of 3): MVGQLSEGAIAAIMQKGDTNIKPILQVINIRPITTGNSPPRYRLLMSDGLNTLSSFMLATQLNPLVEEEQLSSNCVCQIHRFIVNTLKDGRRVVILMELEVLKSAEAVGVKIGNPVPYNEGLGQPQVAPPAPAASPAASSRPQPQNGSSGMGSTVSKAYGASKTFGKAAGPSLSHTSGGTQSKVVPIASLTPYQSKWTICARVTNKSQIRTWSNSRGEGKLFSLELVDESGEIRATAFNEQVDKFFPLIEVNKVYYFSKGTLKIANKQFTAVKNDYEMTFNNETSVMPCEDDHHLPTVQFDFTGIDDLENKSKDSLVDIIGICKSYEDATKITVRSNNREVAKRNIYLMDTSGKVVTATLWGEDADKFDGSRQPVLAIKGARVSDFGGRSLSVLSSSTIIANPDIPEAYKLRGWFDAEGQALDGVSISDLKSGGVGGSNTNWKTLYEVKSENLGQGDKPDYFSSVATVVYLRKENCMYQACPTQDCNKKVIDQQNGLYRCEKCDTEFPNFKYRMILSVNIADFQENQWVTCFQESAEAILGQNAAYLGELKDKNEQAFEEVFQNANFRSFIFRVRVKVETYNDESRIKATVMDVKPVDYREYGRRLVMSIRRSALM
RPA, sequence (P15927 whole entry, chain 2 of 3): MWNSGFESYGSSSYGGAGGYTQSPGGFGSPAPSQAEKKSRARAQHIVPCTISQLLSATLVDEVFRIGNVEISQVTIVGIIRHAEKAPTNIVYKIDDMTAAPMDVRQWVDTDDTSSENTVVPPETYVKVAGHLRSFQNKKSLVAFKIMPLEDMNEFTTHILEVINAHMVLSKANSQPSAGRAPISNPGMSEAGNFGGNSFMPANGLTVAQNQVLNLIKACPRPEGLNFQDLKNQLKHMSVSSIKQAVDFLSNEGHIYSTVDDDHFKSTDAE
RPA, sequence (P35244 whole entry, chain 3 of 3): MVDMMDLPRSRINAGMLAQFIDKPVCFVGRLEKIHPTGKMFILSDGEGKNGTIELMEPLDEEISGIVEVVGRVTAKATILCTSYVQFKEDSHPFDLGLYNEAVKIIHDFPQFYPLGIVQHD

hSSB1 = hSSB1 (Homo sapiens, UniProt Q9BQ15 1-211); conditions: protein: recombinant, tags: His6 (2BT)
hSSB1, sequence (Q9BQ15 whole entry): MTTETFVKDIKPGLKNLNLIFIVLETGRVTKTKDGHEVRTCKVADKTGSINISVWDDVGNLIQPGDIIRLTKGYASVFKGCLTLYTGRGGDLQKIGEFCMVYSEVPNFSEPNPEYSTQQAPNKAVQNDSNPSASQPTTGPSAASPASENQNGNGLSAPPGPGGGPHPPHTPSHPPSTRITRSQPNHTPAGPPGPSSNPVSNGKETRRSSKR

INTS3 = INTS3 (UniProt Q68E01 1-1043); conditions: protein: recombinant; tags: His6-TEV (438B); label: 5' Cy3; single strand
INTS3, sequence (Q68E01 whole entry): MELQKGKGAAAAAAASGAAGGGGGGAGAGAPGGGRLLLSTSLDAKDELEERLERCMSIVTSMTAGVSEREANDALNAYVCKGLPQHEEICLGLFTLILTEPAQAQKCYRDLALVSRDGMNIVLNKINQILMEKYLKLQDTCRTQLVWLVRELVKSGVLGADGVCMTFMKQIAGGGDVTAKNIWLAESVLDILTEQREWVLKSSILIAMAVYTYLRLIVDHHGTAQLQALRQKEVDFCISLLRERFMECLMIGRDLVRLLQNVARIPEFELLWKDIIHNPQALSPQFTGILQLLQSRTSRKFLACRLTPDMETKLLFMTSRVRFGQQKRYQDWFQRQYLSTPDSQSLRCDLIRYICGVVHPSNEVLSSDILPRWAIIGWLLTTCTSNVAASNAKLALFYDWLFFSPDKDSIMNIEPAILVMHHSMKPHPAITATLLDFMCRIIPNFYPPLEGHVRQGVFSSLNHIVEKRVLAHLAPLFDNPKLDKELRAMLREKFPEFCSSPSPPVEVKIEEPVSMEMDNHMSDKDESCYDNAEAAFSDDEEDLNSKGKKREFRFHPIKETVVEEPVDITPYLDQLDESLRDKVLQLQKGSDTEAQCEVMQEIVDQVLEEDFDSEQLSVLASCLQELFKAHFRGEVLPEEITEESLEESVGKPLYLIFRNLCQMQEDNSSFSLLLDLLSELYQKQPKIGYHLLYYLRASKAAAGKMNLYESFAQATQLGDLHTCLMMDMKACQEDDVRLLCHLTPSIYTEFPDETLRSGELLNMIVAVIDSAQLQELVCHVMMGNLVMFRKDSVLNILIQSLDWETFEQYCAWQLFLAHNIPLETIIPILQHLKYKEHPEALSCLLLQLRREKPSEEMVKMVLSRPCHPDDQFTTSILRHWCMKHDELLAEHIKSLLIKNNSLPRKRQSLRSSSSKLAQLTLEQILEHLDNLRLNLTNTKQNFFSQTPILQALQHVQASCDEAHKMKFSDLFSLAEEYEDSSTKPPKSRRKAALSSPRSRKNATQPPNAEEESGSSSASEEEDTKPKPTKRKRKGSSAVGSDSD

Row | Binder | binding result (RPA) | binding result (hSSB1; label: 5' Cy3, single strand) | binding result (INTS3) | binding result (hSSB1; label: 5' Cy3 on strand 1, blunt, 21-nt central bubble) | binding result (hSSB1; label: 5' Cy3 on strand 1, 21-nt RNA paired to strand 1 in a 21-nt bubble, 20-bp flanking duplexes)
1 | GTGCCTTGCTAGGACATCTTT (ssDNA) [21-mer ssDNA (pRMS630)] | binds | no binding |  |  | 
2 | B1 | binds | binds | no binding |  | 
3 | B2 |  |  |  | no binding | 
4 | B3 |  |  |  |  | binds
